Among the data in patent US20240294618A1 (CENTIVAX, published 2024) are Kd, koff and kon values, retold here.

Where “and” joins values, the source holds several entries; their conditions need not be identical. Equal values may be shown once. Read-outs that look alike come from different tables or passages of the source.

The target in test [1] is T1, long-neurotoxin-cobra (naja) (alpha-neurotoxin), recombinant, Cobra-Avi-His (cape cobra (Naja nivea), UniProt P01390 1-71).
T1 sequence: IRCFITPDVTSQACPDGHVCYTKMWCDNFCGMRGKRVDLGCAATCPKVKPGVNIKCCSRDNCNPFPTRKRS

Test [2] deals with T2, long-neurotoxin-mamba (dendroapsis) (alpha-elapitoxin-dpp2d), recombinant, Mamba-Avi-His (black mamba (Dendroaspis polylepsis), UniProt C0HJD7 1-72).
T2 sequence: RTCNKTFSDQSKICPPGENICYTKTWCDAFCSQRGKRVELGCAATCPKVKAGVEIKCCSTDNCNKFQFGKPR

Test [3] concerns the target T3, long-neurotoxin-taipan, recombinant, Taipan-Avi-His (coastal taipan (Oxyuranus scutatellus), UniProt A8HDK9 22-92).
T3 sequence: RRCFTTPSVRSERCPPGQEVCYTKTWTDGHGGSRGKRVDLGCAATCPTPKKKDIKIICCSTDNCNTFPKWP

In test [4] the target is T2, long-neurotoxin-mamba (dendroapsis) …. Kind of test: off-rate kinetics; platform not named.
The target in test [5] is T3, long-neurotoxin-taipan, recombinant, …. Kind of test: off-rate kinetics; platform not named.
For test [6] the target is unchanged. This is another data set of the same source.
The target of test [7] is T4, long-neurotoxin-krait (bungarus) (alpha-bungarotoxin) (krait (Bungarus caeruleus), UniProt D2N116 3-76).
T4 construct: also called Krait LNX; long-neurotoxin from Krait
T4 sequence: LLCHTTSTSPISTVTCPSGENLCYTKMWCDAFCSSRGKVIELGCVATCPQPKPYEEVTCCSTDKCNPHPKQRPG
As to the kind of experiment: off-rate kinetics; platform not named.

B1: SNEURO_P01_B11 (antibody, V domains shown)
VH: QVQLQESGGGLVQPGGSLRLSCAASGFTFSNFDMHWVRQSPGKGLEWVSGLDHSGGAHYAGSVKGRFTISREDAKNSLDLQMNNLRVDDTAVYFCVRGTLYHYTSGSYYSDAFDIWGQGTLVTVSS
VL: DIVMTQSPSSLSASVGDRVTITCRASQGISDNLNWYQQKPGKAPKLLIYAASTLQSGVPSRLSGSGSGTDFTLTISSLQPEDFATYYCQQANSFPLTFGGGTKVEIKR
Regarding B1, in test [1], the equilibrium dissociation constant (Kd) (commonly the free concentration of one partner at which half of the binding sites on the other are occupied at equilibrium, for simple one-to-one binding) was 0.41 nM; the koff (in general, the first-order rate constant of dissociation) worked out at 9e-05 s⁻¹; the on-rate (kon) (commonly the rate constant with which the complex forms) is 220000 M⁻¹ s⁻¹. Also, in test [2], the Kd is 2.1 nM, the koff turned out to be 0.00038 s⁻¹ and the kon was found to be 180000 M⁻¹ s⁻¹. In addition, in test [3], the Kd came out at 35 nM, the koff turned out to be 0.0052 s⁻¹ and the kon came to 150000 M⁻¹ s⁻¹.

B2: SNEURO_P01_D09 FW germlined (antibody, V domains shown)
VH: EVQLVESGGGLVQPGGSLRLSCAASGFTFSNFDMHWVRQATGKGLEWVSGLDHSGGAHYAGSVKGRFTISRENAKNSLYLQMNSLRAGDTAVYYCVRGTLYHYTSGSYYSDAFDIWGQGTLVTVSS
VL: DIQMTQSPSSLSASVGDRVTITCQASQDISNYLNWYQQKPGKAPKLLIYAASSLESGVPSRFSGSGSGTDFTLTISSLQPEDFATYYCQQANSFPYTFGQGTKVEIK
Turning to B2, the figures for the koff in test [4] and in test [5] were 0.000304 s⁻¹ and 0.000366 s⁻¹, respectively.

B3: SNEURO_P01_D09 (antibody, V domains shown)
VH: EVQLVESGGGFVQPGGSLRLSCAASGFTFSNFDMHWVRQSPGKGLEWVSGLDHSGGAHYAGSVKGRFTISREDAKNSLDLQMNNLRVDDTAVYFCVRGTLYHYTSGSYYSDAFDIWGQGTLVTVSS
VL: EIVLTQSPSSLSASVGDRVTITCQASQDISNYLNWYQQKPGKAPKLLIYAASSLESGVPSRFSGSGSGTDFTLTISSQQPEDFATYYCQQANSFPYTFGQGTKVEIKR
B3: the Kd is 1.5 nM in test [3]; 0.49 nM and 0.96 nM in test [6].

B4: SNEURO_P01_D09 VH germlined (antibody, V domains shown)
VH: EVQLVESGGGLVQPGGSLRLSCAASGFTFSNFDMHWVRQATGKGLEWVSGLDHSGGAHYAGSVKGRFTISRENAKNSLYLQMNSLRAGDTAVYYCVRGTLYHYTSGSYYSDAFDIWGQGTLVTVSS
VL: EIVLTQSPSSLSASVGDRVTITCQASQDISNYLNWYQQKPGKAPKLLIYAASSLESGVPSRFSGSGSGTDFTLTISSQQPEDFATYYCQQANSFPYTFGQGTKVEIK
As to B4, the koff in test [4] turned out to be 8.54e-05 s⁻¹; in test [5], 0.000488 s⁻¹.

B5: SNEURO_P01_D09 VK L3 NS->QS (antibody, V domains shown)
VH: EVQLVESGGGFVQPGGSLRLSCAASGFTFSNFDMHWVRQSPGKGLEWVSGLDHSGGAHYAGSVKGRFTISREDAKNSLDLQMNNLRVDDTAVYFCVRGTLYHYTSGSYYSDAFDIWGQGTLVTVSS
VL: EIVLTQSPSSLSASVGDRVTITCQASQDISNYLNWYQQKPGKAPKLLIYAASSLESGVPSRFSGSGSGTDFTLTISSQQPEDFATYYCQQAQSFPYTFGQGTKVEIKR
As for B5, the off-rate (koff) in test [5] worked out at 0.000304 s⁻¹.

B6: SNEURO_P01_D09 VK germlined (antibody, V domains shown)
VH: EVQLVESGGGFVQPGGSLRLSCAASGFTFSNFDMHWVRQSPGKGLEWVSGLDHSGGAHYAGSVKGRFTISREDAKNSLDLQMNNLRVDDTAVYFCVRGTLYHYTSGSYYSDAFDIWGQGTLVTVSS
VL: DIQMTQSPSSLSASVGDRVTITCQASQDISNYLNWYQQKPGKAPKLLIYAASSLESGVPSRFSGSGSGTDFTLTISSLQPEDFATYYCQQANSFPYTFGQGTKVEIK
For the molecule B6, the koff was 6.95e-05 s⁻¹ in test [4], 5.59e-05 s⁻¹ in test [7] and 0.000392 s⁻¹ in test [5].

B7: SNEURO_P01_D09 VK L3 NS->NT (antibody, V domains shown)
VH: EVQLVESGGGFVQPGGSLRLSCAASGFTFSNFDMHWVRQSPGKGLEWVSGLDHSGGAHYAGSVKGRFTISREDAKNSLDLQMNNLRVDDTAVYFCVRGTLYHYTSGSYYSDAFDIWGQGTLVTVSS
VL: EIVLTQSPSSLSASVGDRVTITCQASQDISNYLNWYQQKPGKAPKLLIYAASSLESGVPSRFSGSGSGTDFTLTISSQQPEDFATYYCQQANTFPYTFGQGTKVEIKR
Take B7: the off-rate (koff) in test [5] worked out at 0.000769 s⁻¹.
